# Laboratory results: US20250188151A1, “C-JUN ANTAGONIST PEPTIDES” (The University of Bath, priority 2022, published 2025)
# T1: cJun bZIP (human, UniProt P05412 252-308, limits assumed)
# T1 construct: Purified from a His-SUMO fusion with the tag cleaved off; also called c-Jun bZIP domain; 60 amino acid c-Jun bZIP construct
# T1 chain: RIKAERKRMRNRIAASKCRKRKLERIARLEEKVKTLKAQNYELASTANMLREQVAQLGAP
# Assays:
# Serum stability (LC-MS) = assay type: in vitro ADME; conditions: human serum, 37° C.
# Protocol: Serum Stability: Peptide stocks (600 μM) were prepared in water and 50 μL added to 950 μL human serum (Merck) before incubation at 37° C. […] The supernatant was analysed by LC-MS and quantified using the sum of the two largest charge state intensities (1: 9+, 10+; 23,24: 3+, 4+).
# cJun bZIP [1] = target: T1, cJun bZIP; experiment: ITC (PEAQ-ITC), peptide injected into cJun, one site model; Table 7 ITC, run at a lower temperature than the earlier 1/cJun ITC measurement
# cJun bZIP [2] = target: T1, cJun bZIP; experiment: cell-based or functional assay
# cJun = cJun (Homo sapiens, UniProt P05412, S292Y); experiment: Isothermal titration calorimetry, Example 1 (MicroCal VP-ITC); assay type: binding; design: The same 60 amino acid c-Jun bZIP construct was used for all experiments; His-SUMO (N, cleaved yes); made in house; host or cells: E. coli; conditions: peptide 10 μM injected into cJun 1 μM, single site model; listed as HingeW
# Protocol: Using a MicroCal VP-ITC instrument (Malvern), 10 μL injections of antagonist peptide (HingeW or A-FosW) at 10 μM were injected into the cell containing cJun at 1 μM. MicroCal Origin software was used to record and analyse the heat change upon addition. Control experiments involved the injection of the antagonist peptide sample into the cell containing ITC buffer alone to determine the heat of dilution which was subtracted. The resulting binding data were fit to a one site binding model to extract the enthalpy change of binding (ΔH) and the equilibrium binding constant (KD), from which the free energy change of binding (ΔG) and the entropy change of binding (AS) was calculated (Wiseman et al., 1989). Thermodynamic parameters are presented as an average of two independent experiments with errors given as one standard deviation.
# cJun bZIP [3] = target: T1, cJun bZIP; experiment: ITC
# cJun bZIP [4] = target: T1, cJun bZIP; experiment: CD spectra at 20 °C
# TRE DNA = experiment: CD control: peptide with TRE DNA; assay type: binding
# Protocol: Circular Dichroism (CD): An Applied Photophysics Chirascan was used for CD measurements, with a 200 μL sample in a 1 mm path length CD cell. Protein/DNA samples were suspended in 150 mM potassium phosphate, 150 mM potassium fluoride and 5 mM TCEP at pH 7.4 and were equilibrated for 30 minutes before measurement. […] These scans were averaged and converted to molar residue ellipticities (MRE).
# cJun bZIP [5] = target: T1, cJun bZIP; experiment: ITC (PEAQ-ITC), peptide injected into cJun, one site model
molecule,measurement,setting,value
"HingeW (Recombinant, capped (MAS at the N-terminus, GAP at the C-terminus) and C-terminally 6xHis-tagged, 69 amino acids; also called peptide 1) peptide: MASLEQRAEELARENEELEKEAEELVVEEDVLEEEIEQLEERNYALRKEIEDLQKQLEKLGAPHHHHHH",peak intensities relative to starting values,Serum stability (LC-MS); after 96 hours,no peaks corresponding to 1 are observed
same,degraded,Serum stability (LC-MS); at 24 hours,67%
same,half-life,Serum stability (LC-MS); exponential decay fit,18.9 h
same,Kd,cJun bZIP [1],0.21 nM
same,IC50 CD,cJun bZIP [2],13400 nM
same,Kd,cJun,14 nM
same,fold increase in binding affinity against A-FosW,cJun bZIP [3],6 fold
same,increase in α-helical content relative to the average of the two component spectra,cJun bZIP [4],82%
same,interaction with TRE DNA,TRE DNA,no interaction
same,-TΔS,cJun bZIP [5],17.6 kcal/mol
same,"Stoichiometry, n",cJun bZIP [5],0.93
same,ΔG,cJun bZIP [5],-13.4 kcal/mol
same,ΔH,cJun bZIP [5],-31 kcal/mol
